Assays:
[1] = molecular target: classical and lectin pathway C3 convertase C4b2a (human) (UniProt P0C0L4); test: cell-based or functional assay
[2] = molecular target: C3 convertases (C4b2a and C3bBb); test: cell-based or functional assay

UniProt P0C0L4, sequence (P0C0L4 20-1744 limits assumed, chain 1 of 2): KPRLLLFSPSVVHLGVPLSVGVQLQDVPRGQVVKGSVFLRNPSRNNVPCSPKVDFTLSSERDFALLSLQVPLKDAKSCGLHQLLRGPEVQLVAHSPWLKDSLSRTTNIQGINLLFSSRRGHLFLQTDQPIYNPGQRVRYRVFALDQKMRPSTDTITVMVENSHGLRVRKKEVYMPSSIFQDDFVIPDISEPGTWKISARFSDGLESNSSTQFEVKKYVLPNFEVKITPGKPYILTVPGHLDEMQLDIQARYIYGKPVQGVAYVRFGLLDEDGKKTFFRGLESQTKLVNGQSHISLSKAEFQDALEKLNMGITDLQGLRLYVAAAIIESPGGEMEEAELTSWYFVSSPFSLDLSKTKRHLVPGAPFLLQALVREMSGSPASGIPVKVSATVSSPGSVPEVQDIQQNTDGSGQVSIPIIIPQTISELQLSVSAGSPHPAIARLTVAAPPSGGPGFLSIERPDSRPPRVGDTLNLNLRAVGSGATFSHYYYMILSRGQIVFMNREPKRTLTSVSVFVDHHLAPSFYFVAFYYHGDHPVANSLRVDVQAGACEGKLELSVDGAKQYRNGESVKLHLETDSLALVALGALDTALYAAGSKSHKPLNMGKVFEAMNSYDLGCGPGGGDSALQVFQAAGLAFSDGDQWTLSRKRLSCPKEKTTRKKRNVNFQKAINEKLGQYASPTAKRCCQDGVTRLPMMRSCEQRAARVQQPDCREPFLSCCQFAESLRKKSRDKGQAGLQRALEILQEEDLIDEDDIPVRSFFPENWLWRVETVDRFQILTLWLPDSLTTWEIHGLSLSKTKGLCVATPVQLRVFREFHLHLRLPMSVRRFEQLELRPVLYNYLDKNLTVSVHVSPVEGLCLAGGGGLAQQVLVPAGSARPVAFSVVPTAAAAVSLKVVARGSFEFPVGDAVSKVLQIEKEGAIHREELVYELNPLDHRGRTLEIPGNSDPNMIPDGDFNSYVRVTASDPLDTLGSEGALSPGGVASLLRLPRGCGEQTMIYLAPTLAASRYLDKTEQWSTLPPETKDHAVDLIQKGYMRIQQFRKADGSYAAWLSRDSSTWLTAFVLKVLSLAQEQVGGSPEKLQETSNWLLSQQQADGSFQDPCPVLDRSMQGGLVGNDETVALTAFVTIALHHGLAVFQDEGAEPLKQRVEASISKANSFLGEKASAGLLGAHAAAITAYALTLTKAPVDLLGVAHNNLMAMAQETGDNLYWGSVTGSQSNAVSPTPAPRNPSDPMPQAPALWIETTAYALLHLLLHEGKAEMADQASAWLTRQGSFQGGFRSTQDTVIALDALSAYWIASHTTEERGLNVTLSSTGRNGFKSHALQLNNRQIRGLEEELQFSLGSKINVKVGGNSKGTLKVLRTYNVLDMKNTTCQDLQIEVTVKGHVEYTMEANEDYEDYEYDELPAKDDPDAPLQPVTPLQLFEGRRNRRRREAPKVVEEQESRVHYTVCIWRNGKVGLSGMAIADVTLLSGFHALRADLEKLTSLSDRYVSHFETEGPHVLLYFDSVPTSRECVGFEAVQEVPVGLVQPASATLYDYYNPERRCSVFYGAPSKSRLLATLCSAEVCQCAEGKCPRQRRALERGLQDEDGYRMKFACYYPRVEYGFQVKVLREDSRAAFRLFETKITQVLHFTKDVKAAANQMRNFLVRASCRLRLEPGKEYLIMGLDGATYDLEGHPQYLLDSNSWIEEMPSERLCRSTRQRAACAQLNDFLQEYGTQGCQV
UniProt P0C0L4, sequence (P06681 244-752 limits assumed, chain 2 of 2, further chain): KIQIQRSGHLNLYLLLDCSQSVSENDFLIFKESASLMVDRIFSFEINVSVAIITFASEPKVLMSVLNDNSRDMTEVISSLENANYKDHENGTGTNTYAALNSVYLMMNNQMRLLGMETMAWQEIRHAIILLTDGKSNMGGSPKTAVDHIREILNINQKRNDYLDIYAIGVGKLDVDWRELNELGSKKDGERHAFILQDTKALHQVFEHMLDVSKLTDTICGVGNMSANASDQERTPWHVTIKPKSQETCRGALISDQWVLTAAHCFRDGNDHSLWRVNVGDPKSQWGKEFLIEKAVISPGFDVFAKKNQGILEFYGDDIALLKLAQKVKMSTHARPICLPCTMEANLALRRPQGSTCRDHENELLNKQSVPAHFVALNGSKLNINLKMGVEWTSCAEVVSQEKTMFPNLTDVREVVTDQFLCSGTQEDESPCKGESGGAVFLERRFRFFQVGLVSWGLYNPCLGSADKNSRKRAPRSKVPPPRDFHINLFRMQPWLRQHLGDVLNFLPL

Row | Substance | C5b-9 and C3b deposition via the CP and LP (ELISA) (% inhibition at 10 µg/ml) [1] | IC50 of phagocytosis of S. aureus by human neutrophils in 10% human sera [2] [mg/L]
1 | recombinant Staphylococcal Complement Inhibitor (rSCIN) | 50 | 0.3
2 | recombinant SCIN-B (rSCIN-B) |  | 0.8
3 | recombinant SCIN-C (rSCIN-C) |  | 0.12

— US20090246175A1
